Experimental data taken from patent publication US20230242902A1, “A HIGHLY ERROR-PRONE […] R[…] FOR TARGETED CONTINUOUS EVOLUTION IN VIVO” (The Regents of the University of California, priority 2017, published 2023).

B1: WT: wild-type Kluyveromyces lactis DNA polymerase TP-DNAP2, SEQ ID NO:13 (protein, listed as Kluyveromyces lactis)
chain: MNDELAFLNSQIDDYSDDIEFLRTEVFRINRYSKSIYSLMKNSSKEAIKETIEFNKYGQEIHSKIKEKEISLIEAIKLMEKKYKYLRSLNKTKDKSKKKKIHTKDIETLKTIYKTKADFDIRNFKNAETFTYENYSLLIPSEKELIDLIPEIEEDYSYYFYVSLTITGPTIFGGVTRKVPIIDTYGDINKDFYNKIKENITKVLDRVPFYEEKESEIICKKVLITLTVNKWESIDKWYKNVKSKSKKFKDFTLFLASDTSKNCVQQCVEYLGGKWNTNYSLEKMIPQQKIVTYIPLLMDIQYVQSMEDLISDFDEPNTDCKNIARLLKWNGHMGVITKIDKDVKINRIQRKRIIDVENKEVKEVFFDIESFSDETKHQIPYLICWSYLGELYYRTGKNCIKEFVEEILSYNVDIILYAWYGSGYDYQHVLPYMKSKCIKDKYIIKNNMITYGELYYENAIIYLKDPYLFILTSLDKASKAFNVINKGEFPHSIIHSWEDLNKILPNWVKIQKRMIEYKDDNKLNIYYKNIEIFENDRNYNTILENAIEYCKVDVLAMEKVWIKFKKLLEKNLNITVSVKTFTLSQLSMKIMESKLPKYVKLYVPTLEEYSKIRNAIYGGRVISKNGIYEENIVYADVVSLYPSAMKLLKHSYGKPKLVDYIDFEKHGIYRVTLLNKHDQEPKNYLNFVPRRINRKLTWEWFKIHEGWYHTYDLIIAKSEGFDIYCHEGFEYPEKDYIFNDFIDTLYSMKETHTACSCEEQPCPIRMVAKIALNGGGYGKFVQKPIDKEIYIVKRDVVAGECDKLQENENGEICIGKRLVKRPLFYNLDSENYDKMIIEKEDEPIYSTQCGISILSASRYRLYKLCKQFENIDIIYSDTDSIFVKQKSVDWELFKSKCGSELGQLDSTIDDTKNAIISKMYIGGAKMYAFEYLNNKNKLITKLHCKGVPNYMLSLNQFKYLMESPDNTIAYKFEIIRRKLVNVITKDLIKDIKQT
B2: TP-DNAP1-4-2: TP-DNAP1 variant (L477V, L640Y, I777K, W814N), encoded by SEQ ID NO:11 (protein, listed as Kluyveromyces lactis)
chain: MDYKDKALNDLRNVYADFDSLPLDFRQILIKDRATLLQKEDVEKKILERQEDAKKYAEYLKQSEIPERISLPNIKRHKGVSISFEETSEDMVLEPRPFIFDGLNIRCFRRETIFSLKNKILNMVKESSSFKNVSRQSVSFMYFKIFNKGKVIASTKSVNIYEDKIDERLEDLCNNFDDVLKKIIDVTYGYESLFVSETYSYVIFYAKSIYFPQPRCVNNWGNNIPNILTFDSFKLFTANKNNVSCIKQCSRFLWQKDFNTLEEMIEYKNGNICIVTPQLHINDVRDIKSFNDIRLYSESPIKTFSVIDNTITYLFYFKEHLGVIFNITKSRHDRRVTKFSPLSKFSDVKNITVCFDIESYFDPEKESNQVNIPFICCASIIYNKVIGNIVDFEGRDCVAQMIEYVVDICGELNISSVELIAHNGGGYDFHYILSSMYNPAAIKNILIRNNSFISFNFAHDGVKFSVKDSYSFLLCSVANASKAFLNEETFKKTDFPHHDLKTADDLYKVYKEWSSVNTEINHVVEKEKLLITSEHIVNFTKNDKSKTLIEWSKDYCRNDVLVLSKVWLEFKNAVEDIFNCELVDQTMTLAGLSYKLFQANMPFDVELRHPNKEDYFNMREALIGGRCISVNGIYKDVLCYDVKSLYPASMAFYDQPYGSFKRVSSRPKDELGIYYVRVTPNRNNKSNFFPIRSHNKITYNNFEESTYIAWYTNVDIDIGLSEGHNIEYIPFDSYGNIGYSWSKKGKIFEKYIKDVLYKLKIKYEKQNNKVKRNVIKKIMNSLWGKFAQKWVNFEYFIKSEDDIDFESEEAYKINDTDFMLIKKIKESTYSSKPIQNGVFTLSWARYHMKSIWDAGAKEGAECIYSDTDSIFVHKEHFKKNAKFMLNGLKVPIIGSEVGQLELECEFDKLLCAGKKQYMGFYTYFQDGKPCIKEKKRFKGIPSNYIIPELYAHLLSGADKEAKIQFLKFRREWGSVKGYIENKTVKAT
B3: w.t.: wild-type Kluyveromyces lactis DNA polymerase TP-DNAP1, SEQ ID NO:1 (protein, listed as Kluyveromyces lactis)
chain: MDYKDKALNDLRNVYADFDSLPLDFRQILIKDRATLLQKEDVEKKILERQEDAKKYAEYLKQSEIPERISLPNIKRHKGVSISFEETSEDMVLEPRPFIFDGLNIRCFRRETIFSLKNKILNMVKESSSFKNVSRQSVSFMYFKIFNKGKVIASTKSVNIYEDKIDERLEDLCNNFDDVLKKIIDVTYGYESLFVSETYSYVIFYAKSIYFPQPRCVNNWGNNIPNILTFDSFKLFTANKNNVSCIKQCSRFLWQKDFNTLEEMIEYKNGNICIVTPQLHINDVRDIKSFNDIRLYSESPIKTFSVIDNTITYLFYFKEHLGVIFNITKSRHDRRVTKFSPLSKFSDVKNITVCFDIESYFDPEKESNQVNIPFICCASIIYNKVIGNIVDFEGRDCVAQMIEYVVDICGELNISSVELIAHNGGGYDFHYILSSMYNPAAIKNILIRNNSFISFNFAHDGVKFSVKDSYSFLLCSLANASKAFLNEETFKKTDFPHHDLKTADDLYKVYKEWSSVNTEINHVVEKEKLLITSEHIVNFTKNDKSKTLIEWSKDYCRNDVLVLSKVWLEFKNAVEDIFNCELVDQTMTLAGLSYKLFQANMPFDVELRHPNKEDYFNMREALIGGRCISVNGIYKDVLCLDVKSLYPASMAFYDQPYGSFKRVSSRPKDELGIYYVRVTPNRNNKSNFFPIRSHNKITYNNFEESTYIAWYTNVDIDIGLSEGHNIEYIPFDSYGNIGYSWSKKGKIFEKYIKDVLYKLKIKYEKQNNKVKRNVIKIIMNSLWGKFAQKWVNFEYFIKSEDDIDFESEEAYKIWDTDFMLIKKIKESTYSSKPIQNGVFTLSWARYHMKSIWDAGAKEGAECIYSDTDSIFVHKEHFKKNAKFMLNGLKVPIIGSEVGQLELECEFDKLLCAGKKQYMGFYTYFQDGKPCIKEKKRFKGIPSNYIIPELYAHLLSGADKEAKIQFLKFRREWGSVKGYIENKTVKAT

Assays:
p2 = p2 copy number by mKate2 fluorescence calibrated with qPCR; assay type: cell-based, S. cerevisiae; conditions: GA-Y021
Description: To precisely measure p1 and p2 per-base substitution mutation rates, several modifications were made to the small-scale protocol. First, 36 replicates were performed for reconfirmation of candidate TP-DNAP2 mutators, and 48 replicates for genomic and mutual orthogonality experiments. Titers were also determined for each strain after spot plating by pooling the residual volume from 4 replicates and plating dilutions on YPD. The expected number of LEU2 functional mutants (m) was determined by the Ma-Sandri-Sarkar maximum likelihood estimator (as calculated by the FALCOR tool and corrected for partial plating (Foster, 2006, Methods Enzymol, 409:195-213; Sarkar et al., 1992, Genetica, 85:173-179; Hall et al., 2009, Bioinformatics, 25:1564-1565). The mean mKate2 fluorescence was determined from 50,000 event counts on Attune™ NxT Flow Cytometer and converted to p2 copy number by using a calibration curve. To determine per-base substitution rates, the corrected m was normalized to the average cell titer, the p2 copy number, and the target size for functional leu2* reversion (2.33 bp). […]
A standard curve relating p2 copy number to mKate2 fluorescence was prepared by combining quantitative PCR with flow cytometry. […] All extracts were diluted 4000-fold for use in two distinct qPCR reactions, one to quantify p2-encoded leu2* and the other to quantify the genomic copy of LEU3. […]

genomic URA3 gene = experiment: Fluctuation tests of the genomic URA3 gene in the presence of TP-DNAP1 variants; assay type: cell-based, S. cerevisiae; conditions: for Yeast genomic substitution mutation rate: URA3 locus, strain harbouring p1 and the TP-DNAP1 variant
Description: Fluctuation tests of the genomic URA3 gene were performed to determine genomic per-base substitution rates, as previously described (Ravikumar et al., 2014). Fluctuation data were analyzed by the maximum likelihood method, as described for large-scale p1 fluctuation tests. Phenotypic mutation rates were divided by the target size for loss of function of URA3 via base pair substitution (Lang et al., 2008), to yield per-base substitution rates. 95% confidence intervals were similarly scaled by these factors. All data related to genomic URA3 fluctuation tests are fully described in Table 5.

| Molecule | p2 copy number per cell (p2) | genomic mutation rates in the presence of p1 replication (genomic URA3 gene) | Yeast genomic substitution mutation rate (genomic URA3 gene) |
| --- | --- | --- | --- |
| B1 | 128 | – | – |
| B2 | – | remain unchanged | 1.98 × 10^−10 s.p.b. |
| B3 | – | – | 8.73 × 10^−11 s.p.b. |
